Results published in patent US20230272056A1 (Merck Sharp & Dohme, published 2023).

Columns and labels:
[1] = biological target: T1, human LAP-TGFB2 Fc fusion (human); assay: SPR
T1 construct: also called human LAP-TGFβ2; LAP-TGFβ isoform 2
Text: (§1) This Example describes the isoform specificity of the yeast display mutants to bind to human LAP-TGFβ isoforms 1, 2, and 3 using surface plasmon resonance. A Series S CM4 sensor chip (GE Healthcare, catalog BR100534) was immobilized with an anti-human Fc capture antibody following the kit protocol (GE Healthcare, catalog BR100839) on a Biacore T200 instrument with 1× HBS-EP+ (Teknova, catalog H8022). […] Binding specificity experiments between human LAP-TGFβ isoforms 2 and 3 and yeast display mutants were performed in 1× HBS-EP+ with 0.1 mg/mL BSA at 25° C. Approximately 20-40 RU amounts of human LAP-TGFβ2 and 3 were captured to the anti-human Fc surface followed by injection of 1000 nM Fab including a negative control 0 nM Fab. The binding data were double referenced by subtraction of signal from a reference (capture surface only) flow cell and the negative control 0 nM Fab injection. Binding rate constants were determined by fitting the data with a 1:1 binding model (GE Healthcare Biacore T200 Evaluation software 3.0).

[2] = biological target: T2, human LAP-TGFB3 Fc fusion (human); assay: SPR
T2 construct: also called human LAP-TGFβ3; LAP-TGFβ isoform 3
T2 sequence (chain, as listed by the source limits assumed): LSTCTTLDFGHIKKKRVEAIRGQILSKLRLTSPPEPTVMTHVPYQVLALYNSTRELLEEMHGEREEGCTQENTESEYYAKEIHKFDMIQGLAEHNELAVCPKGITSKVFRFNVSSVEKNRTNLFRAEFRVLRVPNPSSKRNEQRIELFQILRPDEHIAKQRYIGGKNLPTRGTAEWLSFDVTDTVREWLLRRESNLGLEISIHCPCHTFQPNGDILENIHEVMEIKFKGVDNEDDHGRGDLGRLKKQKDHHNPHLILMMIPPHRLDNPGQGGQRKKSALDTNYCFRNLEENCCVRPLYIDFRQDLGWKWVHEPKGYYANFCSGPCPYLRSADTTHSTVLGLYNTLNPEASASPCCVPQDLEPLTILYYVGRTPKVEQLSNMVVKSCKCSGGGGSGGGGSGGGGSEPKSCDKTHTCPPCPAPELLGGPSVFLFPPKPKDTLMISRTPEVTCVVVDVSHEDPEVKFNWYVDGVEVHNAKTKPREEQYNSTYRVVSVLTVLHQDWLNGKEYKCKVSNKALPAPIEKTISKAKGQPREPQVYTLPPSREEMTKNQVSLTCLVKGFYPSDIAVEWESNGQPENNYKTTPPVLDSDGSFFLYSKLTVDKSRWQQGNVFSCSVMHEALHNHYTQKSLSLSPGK
Text: as §1

[3] = biological target: T3, human LAP-TGFB1 Fc fusion (human); assay: SPR, antigen-Fc captured, Fab analyte
T3 construct: also called human LAP-TGFβ1-Fc; human LAP-TGFβ-Fc isoform 1
T3 sequence (chain, as listed by the source limits assumed): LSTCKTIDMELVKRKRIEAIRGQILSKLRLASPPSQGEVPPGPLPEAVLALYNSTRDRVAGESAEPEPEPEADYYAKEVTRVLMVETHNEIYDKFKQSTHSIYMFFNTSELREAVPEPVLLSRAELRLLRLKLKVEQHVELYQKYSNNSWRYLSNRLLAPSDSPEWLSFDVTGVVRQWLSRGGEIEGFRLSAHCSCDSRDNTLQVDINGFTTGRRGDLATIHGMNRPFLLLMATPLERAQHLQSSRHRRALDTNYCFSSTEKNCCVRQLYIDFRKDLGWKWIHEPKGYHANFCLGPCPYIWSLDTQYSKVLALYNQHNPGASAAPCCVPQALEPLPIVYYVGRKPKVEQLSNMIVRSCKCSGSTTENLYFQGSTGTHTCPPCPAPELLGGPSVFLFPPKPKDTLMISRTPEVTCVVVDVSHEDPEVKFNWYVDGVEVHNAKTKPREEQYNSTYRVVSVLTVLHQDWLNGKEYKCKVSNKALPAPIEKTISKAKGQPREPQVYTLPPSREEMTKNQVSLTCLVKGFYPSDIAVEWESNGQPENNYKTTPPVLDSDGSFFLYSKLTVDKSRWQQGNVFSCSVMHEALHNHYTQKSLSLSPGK
Text: as §1

T1 sequence (chain, as listed by the source limits assumed): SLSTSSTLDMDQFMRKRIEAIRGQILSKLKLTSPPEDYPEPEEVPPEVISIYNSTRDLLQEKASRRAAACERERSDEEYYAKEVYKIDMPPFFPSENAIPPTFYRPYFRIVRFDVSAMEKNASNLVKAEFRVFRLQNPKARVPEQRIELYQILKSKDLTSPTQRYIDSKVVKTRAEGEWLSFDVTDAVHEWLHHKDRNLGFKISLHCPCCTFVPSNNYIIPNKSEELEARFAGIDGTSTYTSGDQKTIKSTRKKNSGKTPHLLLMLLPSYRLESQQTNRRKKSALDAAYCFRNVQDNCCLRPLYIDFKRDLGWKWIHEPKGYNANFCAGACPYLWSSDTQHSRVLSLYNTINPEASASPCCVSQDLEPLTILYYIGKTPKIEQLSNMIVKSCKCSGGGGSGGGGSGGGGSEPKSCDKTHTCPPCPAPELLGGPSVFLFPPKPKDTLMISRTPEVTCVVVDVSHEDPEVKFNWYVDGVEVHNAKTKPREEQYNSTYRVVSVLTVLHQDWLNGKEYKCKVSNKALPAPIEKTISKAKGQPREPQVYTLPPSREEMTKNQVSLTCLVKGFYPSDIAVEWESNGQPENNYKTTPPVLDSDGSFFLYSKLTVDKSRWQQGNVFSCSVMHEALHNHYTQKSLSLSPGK

binding result [1] | binding result [2] | Fold improvement in KD [3] [fold] | Kd [3] [nM] | koff [3] [s⁻¹] | kon [3] [M⁻¹ s⁻¹] | Binder
no binding (tested: 1000 nM Fab) | no binding (tested: 1000 nM Fab) | 13 | 6.21 | 0.0131 | 2.11e+06 | 66BJN (Fab, V domains shown, also called VH W33D S55T Y101H / VL T30Y L94Q (66BJN)) VH: EVQLVQSGAEVKKPGASVKVSCKASGYTFTSYDMHWVRQAPGQGLEWMGRIDPQTGGIKYAQKFQGRATLTVDTSTSTAYMELSRLRSDDTAVYYCARWDHGGYFDVWGQGTLVTVSS VL: DIQMTQSPSSLSASVGDRVTITCRASQDIYNYLNWYQQKPGKAVKLLIYYTSRLHSGVPSRFSGSGSGTDYTLTISSLQPEDFATYFCQQGDTQPWTFGQGTKLEIKR
no binding (tested: 1000 nM Fab) | no binding (tested: 1000 nM Fab) | 512 | 0.156 | 0.000762 | 4.87e+06 | 67BJN (Fab, V domains shown, also called VH W33D / VL T30Y R53V (67BJN)) VH: EVQLVQSGAEVKKPGASVKVSCKASGYTFTSYDMHWVRQAPGQGLEWMGRIDPQSGGIKYAQKFQGRATLTVDTSTSTAYMELSRLRSDDTAVYYCARWDYGGYFDVWGQGTLVTVSS VL: DIQMTQSPSSLSASVGDRVTITCRASQDIYNYLNWYQQKPGKAVKLLIYYTSVLHSGVPSRFSGSGSGTDYTLTISSLQPEDFATYFCQQGDTLPWTFGQGTKLEIKR
no binding (tested: 1000 nM Fab) | no binding (tested: 1000 nM Fab) | 768 | 0.104 | 0.000186 | 1.8e+06 | 76BJN (Fab, V domains shown, also called VH S31Y W33D Q54Y S55D G57D / VL T30Y R53L T93E (76BJN)) VH: EVQLVQSGAEVKKPGASVKVSCKASGYTFTYYDMHWVRQAPGQGLEWMGRIDPYDGDIKYAQKFQGRATLTVDTSTSTAYMELSRLRSDDTAVYYCARWDYGGYFDVWGQGTLVTVSS VL: DIQMTQSPSSLSASVGDRVTITCRASQDIYNYLNWYQQKPGKAVKLLIYYTSLLHSGVPSRFSGSGSGTDYTLTISSLQPEDFATYFCQQGDELPWTFGQGTKLEIKR
no binding (tested: 1000 nM Fab) | no binding (tested: 1000 nM Fab) | 3630 | 0.022 | 0.000128 | 5.84e+06 | 79BJN (Fab, V domains shown, also called VH W33D S55D S57D I58V / VL T30Y R53G T93E (79BJN)) VH: EVQLVQSGAEVKKPGASVKVSCKASGYTFTSYDMHWVRQAPGQGLEWMGRIDPQDGDVKYAQKFQGRATLTVDTSTSTAYMELSRLRSDDTAVYYCARWDYGGYFDVWGQGTLVTVSS VL: DIQMTQSPSSLSASVGDRVTITCRASQDIYNYLNWYQQKPGKAVKLLIYYTSGLHSGVPSRFSGSGSGTDYTLTISSLQPEDFATYFCQQGDELPWTFGQGTKLEIKR
no binding (tested: 1000 nM Fab) | no binding (tested: 1000 nM Fab) | 4200 | 0.0191 | 8.34e-05 | 4.36e+06 | 68BJN (Fab, V domains shown, also called VH H35Q S55D S57D W99Y / VL T30Y R53V (68BJN)) VH: EVQLVQSGAEVKKPGASVKVSCKASGYTFTSYWMQWVRQAPGQGLEWMGRIDPQDGDIKYAQKFQGRATLTVDTSTSTAYMELSRLRSDDTAVYYCARYDYGGYFDVWGQGTLVTVSS VL: DIQMTQSPSSLSASVGDRVTITCRASQDIYNYLNWYQQKPGKAVKLLIYYTSVLHSGVPSRFSGSGSGTDYTLTISSLQPEDFATYFCQQGDTLPWTFGQGTKLEIKR
no binding (tested: 1000 nM Fab) | no binding (tested: 1000 nM Fab) | 3200 | 0.0251 | 6.8e-05 | 2.71e+06 | 71BJN (Fab, V domains shown, also called VH W33D S55T G57D Y104Q / VL T30Y R53G (71BJN)) VH: EVQLVQSGAEVKKPGASVKVSCKASGYTFTSYDMHWVRQAPGQGLEWMGRIDPQTGDIKYAQKFQGRATLTVDTSTSTAYMELSRLRSDDTAVYYCARWDYGGQFDVWGQGTLVTVSS VL: DIQMTQSPSSLSASVGDRVTITCRASQDIYNYLNWYQQKPGKAVKLLIYYTSGLHSGVPSRFSGSGSGTDYTLTISSLQPEDFATYFCQQGDTLPWTFGQGTKLEIKR
no binding (tested: 1000 nM Fab) | no binding (tested: 1000 nM Fab) | 13200 | 0.00607 | 2.52e-05 | 4.15e+06 | 80BJN (Fab, V domains shown, also called VH W33D K59R Y104Q / VL T30Y R53I (80BJN)) VH: EVQLVQSGAEVKKPGASVKVSCKASGYTFTSYDMHWVRQAPGQGLEWMGRIDPQSGGIRYAQKFQGRATLTVDTSTSTAYMELSRLRSDDTAVYYCARWDYGGQFDVWGQGTLVTVSS VL: DIQMTQSPSSLSASVGDRVTITCRASQDIYNYLNWYQQKPGKAVKLLIYYTSILHSGVPSRFSGSGSGTDYTLTISSLQPEDFATYFCQQGDTLPWTFGQGTKLEIKR
no binding (tested: 1000 nM Fab) | no binding (tested: 1000 nM Fab) | 12700 | 0.00629 | 2.56e-05 | 4.08e+06 | 81BJN (Fab, V domains shown, also called VH S31E W33D K59R Y104Q V107A / VL T30Y R53V (81BJN)) VH: EVQLVQSGAEVKKPGASVKVSCKASGYTFTEYDMHWVRQAPGQGLEWMGRIDPQSGGIRYAQKFQGRATLTVDTSTSTAYMELSRLRSDDTAVYYCARWDYGGQFDAWGQGTLVTVSS VL: DIQMTQSPSSLSASVGDRVTITCRASQDIYNYLNWYQQKPGKAVKLLIYYTSVLHSGVPSRFSGSGSGTDYTLTISSLQPEDFATYFCQQGDTLPWTFGQGTKLEIKR
no binding (tested: 1000 nM Fab) | no binding (tested: 1000 nM Fab) | 130 | 0.615 | 0.00298 | 4.85e+06 | 72BJN (Fab, V domains shown, also called VH S31Q W33D W99Y / VL T30Y R53I (72BJN)) VH: EVQLVQSGAEVKKPGASVKVSCKASGYTFTQYDMHWVRQAPGQGLEWMGRIDPQSGGIKYAQKFQGRATLTVDTSTSTAYMELSRLRSDDTAVYYCARYDYGGYFDVWGQGTLVTVSS VL: DIQMTQSPSSLSASVGDRVTITCRASQDIYNYLNWYQQKPGKAVKLLIYYTSILHSGVPSRFSGSGSGTDYTLTISSLQPEDFATYFCQQGDTLPWTFGQGTKLEIKR
no binding (tested: 1000 nM Fab) | no binding (tested: 1000 nM Fab) | 1120 | 0.0713 | 0.000393 | 5.52e+06 | 78BJN (Fab, V domains shown, also called VH W33D K59R / VL T30Y R53N T93E (78BJN)) VH: EVQLVQSGAEVKKPGASVKVSCKASGYTFTSYDMHWVRQAPGQGLEWMGRIDPQSGGIRYAQKFQGRATLTVDTSTSTAYMELSRLRSDDTAVYYCARWDYGGYFDVWGQGTLVTVSS VL: DIQMTQSPSSLSASVGDRVTITCRASQDIYNYLNWYQQKPGKAVKLLIYYTSNLHSGVPSRFSGSGSGTDYTLTISSLQPEDFATYFCQQGDELPWTFGQGTKLEIKR
no binding (tested: 1000 nM Fab) | no binding (tested: 1000 nM Fab) | 1180 | – | – | – | 75BJN (Fab, V domains shown, Label says VL T30Y but the printed LCDR1 reads F at 30; also called VH S31K W33D S55D I58F / VL T30Y R53Y T93E (75BJN)) VH: EVQLVQSGAEVKKPGASVKVSCKASGYTFTKYDMHWVRQAPGQGLEWMGRIDPQDGGFKYAQKFQGRATLTVDTSTSTAYMELSRLRSDDTAVYYCARWDYGGYFDVWGQGTLVTVSS VL: DIQMTQSPSSLSASVGDRVTITCRASQDIFNYLNWYQQKPGKAVKLLIYYTSYLHSGVPSRFSGSGSGTDYTLTISSLQPEDFATYFCQQGDELPWTFGQGTKLEIKR
no binding (tested: 1000 nM Fab) | no binding (tested: 1000 nM Fab) | 133 | 0.601 | 0.0031 | 5.15e+06 | 73BJN (Fab, V domains shown, also called VH W33D / VL T30Y (73BJN)) VH: EVQLVQSGAEVKKPGASVKVSCKASGYTFTSYDMHWVRQAPGQGLEWMGRIDPQSGGIKYAQKFQGRATLTVDTSTSTAYMELSRLRSDDTAVYYCARWDYGGYFDVWGQGTLVTVSS VL: DIQMTQSPSSLSASVGDRVTITCRASQDIYNYLNWYQQKPGKAVKLLIYYTSRLHSGVPSRFSGSGSGTDYTLTISSLQPEDFATYFCQQGDTLPWTFGQGTKLEIKR
no binding (tested: 1000 nM Fab) | no binding (tested: 1000 nM Fab) | 1540 | 0.0517 | 0.00027 | 5.22e+06 | 77BJN (Fab, V domains shown, also called VH W33D I58V / VL T30Y R53V T93E (77BJN)) VH: EVQLVQSGAEVKKPGASVKVSCKASGYTFTSYDMHWVRQAPGQGLEWMGRIDPQSGGVKYAQKFQGRATLTVDTSTSTAYMELSRLRSDDTAVYYCARWDYGGYFDVWGQGTLVTVSS VL: DIQMTQSPSSLSASVGDRVTITCRASQDIYNYLNWYQQKPGKAVKLLIYYTSVLHSGVPSRFSGSGSGTDYTLTISSLQPEDFATYFCQQGDELPWTFGQGTKLEIKR
no binding (tested: 1000 nM Fab) | no binding (tested: 1000 nM Fab) | 196 | 0.408 | 0.00181 | 4.45e+06 | 74BJN (Fab, V domains shown, also called VH S31Y W33D M34L / VL T30Y T93D L94I (74BJN)) VH: EVQLVQSGAEVKKPGASVKVSCKASGYTFTYYDLHWVRQAPGQGLEWMGRIDPQSGGIKYAQKFQGRATLTVDTSTSTAYMELSRLRSDDTAVYYCARWDYGGYFDVWGQGTLVTVSS VL: DIQMTQSPSSLSASVGDRVTITCRASQDIYNYLNWYQQKPGKAVKLLIYYTSRLHSGVPSRFSGSGSGTDYTLTISSLQPEDFATYFCQQGDDIPWTFGQGTKLEIKR
